Results on one molecule are retold here after patent publication US20250277199, “NOVEL CRISPR-CAS NUCLEASES FROM METAGENOMES” (Brain Biotech AG, published 2025).

The target of the series is T1, BMC11 (uncultured bacterium (metagenome)).
T1 chain: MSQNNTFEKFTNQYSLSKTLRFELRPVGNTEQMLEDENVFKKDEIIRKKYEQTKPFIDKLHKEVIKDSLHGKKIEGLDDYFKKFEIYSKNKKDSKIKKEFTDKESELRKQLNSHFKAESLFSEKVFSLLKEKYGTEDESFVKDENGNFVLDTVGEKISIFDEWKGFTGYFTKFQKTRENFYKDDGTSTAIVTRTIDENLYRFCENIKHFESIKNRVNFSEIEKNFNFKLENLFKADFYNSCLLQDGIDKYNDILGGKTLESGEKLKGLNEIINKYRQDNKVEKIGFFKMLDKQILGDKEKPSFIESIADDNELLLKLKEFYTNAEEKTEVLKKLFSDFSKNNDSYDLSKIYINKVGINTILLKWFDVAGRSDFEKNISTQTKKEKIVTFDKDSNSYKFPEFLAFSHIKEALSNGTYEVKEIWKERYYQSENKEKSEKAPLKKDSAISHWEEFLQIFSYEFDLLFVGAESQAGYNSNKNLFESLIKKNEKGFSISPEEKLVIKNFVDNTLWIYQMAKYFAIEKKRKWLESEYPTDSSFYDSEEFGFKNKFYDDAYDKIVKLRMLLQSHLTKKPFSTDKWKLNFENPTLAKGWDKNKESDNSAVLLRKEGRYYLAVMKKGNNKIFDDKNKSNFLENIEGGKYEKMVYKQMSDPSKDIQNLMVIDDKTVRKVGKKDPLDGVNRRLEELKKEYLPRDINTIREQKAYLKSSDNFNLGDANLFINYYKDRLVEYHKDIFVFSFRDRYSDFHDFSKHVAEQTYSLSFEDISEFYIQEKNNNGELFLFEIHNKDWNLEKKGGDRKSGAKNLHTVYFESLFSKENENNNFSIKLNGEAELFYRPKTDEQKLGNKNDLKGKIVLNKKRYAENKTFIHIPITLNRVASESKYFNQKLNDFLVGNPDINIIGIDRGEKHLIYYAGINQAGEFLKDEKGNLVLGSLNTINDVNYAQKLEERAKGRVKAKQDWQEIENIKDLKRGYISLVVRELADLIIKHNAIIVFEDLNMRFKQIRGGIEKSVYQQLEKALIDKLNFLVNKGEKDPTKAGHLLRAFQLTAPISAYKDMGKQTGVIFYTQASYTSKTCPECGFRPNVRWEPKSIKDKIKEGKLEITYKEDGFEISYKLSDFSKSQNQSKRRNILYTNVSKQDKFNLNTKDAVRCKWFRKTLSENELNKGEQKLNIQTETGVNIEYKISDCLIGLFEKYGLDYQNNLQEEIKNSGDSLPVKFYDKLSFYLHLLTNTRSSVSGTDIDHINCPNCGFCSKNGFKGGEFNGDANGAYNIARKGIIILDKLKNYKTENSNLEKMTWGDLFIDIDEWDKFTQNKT
The experiment in a line: cell_activity; PAM not stated; E. coli depletion, 30 C. The method, boiled down:
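E. coli carrying arabinose-induced (0.2%) BMC nuclease, grown at 30° C., made electrocompetent and electroporated with 50-100 ng plasmid carrying gRNA against malQ. Transformants plated on selective M9-glucose agar with kanamycin/ampicillin (± nourseothricin), and growth scored after 48 h at 30° C.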

A value given as a limit tells only on which side of the number the result lay.

B1: malQ gRNA (BMC stem-loop + 24 nt spacer) ; malQ protospacer (ssRNA ; dsDNA)
RNA: GAUUUCUACUAUUGUAGAUGUGGCGGUACGUUGAUGCAUCGCG
DNA 1: GTGGCGGTACGTTGATGCATCGCG
DNA 2: CGCGATGCATCAACGTACCGCCAC
With B1, the activity was over 99.9 % colony reduction.
